Results reported in the Human Domainome abundance scans (Beltran et al. 2025).

B1: Peroxisome proliferator-activated receptor delta, residues 71 to 145; numbered along this chain, Q03181 (parent)
chain: NMECRVCGDKASGFHYGVHACEGCKGFFRRTIRMKLEYEKCERSCKIQKKNRNKCQYCRFQKCLALGMSHNAIRF

Variants of: B1
Experiment: abundance fitness (aPCA) (normalised: wild type 0, dead -1); higher = more abundant; growth selection in yeast, the domain comes from the species named
Details: Homo sapiens

Abundance fitness: each site, then its substitutions
K35: P -0.509 | F -0.339 | Q 0.093 | R -0.026 | V -0.33 | M -0.079 | E 0.063 | S 0.013 | A -0.054 | I -0.655 | D -0.028 | C -0.015 | T -0.272 | N 0.04 | L -0.495 | H -0.169
C21: A -0.705 | Q -0.763 | H -0.714 | Y -0.599 | L -0.942 | R -0.865 | S -0.867 | M -0.912 | E -0.847 | W -0.881 | K -0.597 | G -0.633 | D -0.875 | P -1.14 | T -0.83 | I -0.608
A20: G -0.847 | V -0.077 | L -0.106 | M -0.456 | C 0.139 | K -0.771 | N -0.222 | I -0.023 | F 0.145 | R -0.707 | T -0.057 | H -0.594 | Q -0.874 | E -0.886 | W -0.534 | D -0.99 | P -0.792 | S -0.168
F28: W -0.203 | I -1.23 | D -0.845 | N -0.586 | M -0.156 | Q -0.808 | T -0.909 | P -0.406 | R -0.823 | H -0.936 | E -0.667 | K -0.758 | C -0.882 | Y -0.159 | V -0.538 | S -0.625 | A -0.603 | L -0.842
G17: H -0.682 | E -0.27 | Q -0.248 | R -0.777 | I -0.813 | M -0.158 | D -0.15 | V -0.647 | T -0.567 | P -0.527 | K -0.861 | S -0.448 | N -0.238 | F -0.661 | L -0.692 | W -0.918 | A -0.465
M34: D 0.192 | S -0.097 | L 0.006 | A -0.112 | W -0.063 | K -0.074 | H 0.047 | P -0.602 | V -0.577 | E 0.118 | C -0.032 | G -0.033 | R -0.161 | Q 0.136 | I -0.817 | T -0.36
C24: H -0.15 | F -0.364 | T -0.723 | S -0.809 | K -0.6 | M -0.648 | A -0.626 | Y -0.747 | Q -0.912 | D -0.306 | N -0.648 | I -0.464 | L -0.753 | R -0.823 | V -1.06 | E -0.924
R33: V 0.072 | L 0.089 | M 0.088 | S 0.168 | F 0.208 | G -0.038 | T 0.129 | Y -0.019 | D 0.177 | N 0.082 | Q 0.058 | P -0.972 | E 0.18 | C 0.11 | H -0.091 | W -0.108
G26: A 0.068 | N 0.055 | T 0.039 | M -0.09 | I 0.025 | V -0.004 | H 0.221 | W -0.174 | E 0.127 | Y 0.084 | F -0.125 | P -1.02 | C -0.139 | D 0.114 | R -0.099
E22: H -0.385 | I -0.176 | S -0.405 | G -0.341 | Q -0.332 | A -0.256 | L -0.508 | W -0.425 | P -0.294 | C -0.258 | D -0.148 | M -0.205 | F -0.343 | N -0.207 | Y -0.389 | R -0.293 | T -0.282 | V -0.325 | K -0.297
H19: A 0.11 | G -0.205 | M 0.122 | F 0.247 | Q 0.131 | V -0.083 | N 0.063 | S 0.046 | W -0.001 | P -0.028 | K -0.047 | D 0.205 | E 0.136 | C 0.014 | I 0.009 | R -0.049 | T 0.041 | Y 0.038
G23: Q -0.009 | W 0.084 | T -0.203 | M 0.009 | V -0.325 | D 0.192 | N 0.109 | I -0.244 | R -0.179 | K -0.034 | L -0.061 | E 0.17 | C 0.071 | H 0.26 | F -0.001 | Y 0.021 | S 0.146
V18: W -0.721 | P -0.492 | H -0.764 | L -0.258 | R -0.671 | Q -0.39 | S -0.505 | Y -0.652 | A -0.104 | E -0.398 | I -0.051 | N -0.372 | C -0.145 | F -0.527 | D -0.396
K25: I 0.061 | T 0.094 | Y 0.114 | L 0.112 | G 0.178 | F -0.108 | W 0.01 | M 0.188 | V 0.109 | H -0.19 | E 0.142 | Q -0.036 | S 0.105 | D -0.048 | A 0.122 | C -0.014 | P -0.878 | R -0.003
Y16: G -0.013 | V -0.281 | E -0.023 | F -0.085 | R -0.533 | A -0.065 | Q -0.034 | M -0.171 | T -0.32 | L -0.269 | W -0.27 | D 0.126 | S -0.132 | H -0.13 | N -0.032 | K -0.356
R30: T -0.07 | I -0.31 | P -1.05 | A -0.359 | K -0.07 | G -0.335 | E 0.074 | V -0.188 | D 0.026 | S -0.088 | Y -0.056 | N 0.021 | H -0.067 | C -0.275 | M -0.176
T31: G -0.717 | D -0.663 | K -0.917 | Q -0.792 | P -1.16 | I -0.49 | Y -0.46 | A -0.288 | R -0.778 | N -0.967 | F -0.406 | E -0.89 | S -0.043 | W -0.588 | M -0.521 | V -0.394 | L -0.985 | C -0.726
R29: E 0.258 | F 0.142 | I 0.132 | L 0.139 | W 0.164 | D 0.131 | T 0.197 | G 0.09 | P -0.901 | V 0.105 | Q 0.168 | Y -0.089 | N 0.085 | C -0.009 | K 0.026 | A 0.191
F27: R -0.684 | M -1.02 | L -0.784 | V -0.951 | K -0.772 | E -0.85 | I -0.994 | P -0.876 | C -0.719 | D -0.41 | W -0.787 | Q -0.958 | G -0.789 | Y -1.06 | A -0.934
H15: T -0.174 | V -0.238 | Y -0.088
I32: G -0.677 | D -0.5 | T -0.107 | Q -0.365 | H -0.405 | N -0.617 | C -0.234 | E -0.531 | R -0.514 | L -0.095 | P -0.869 | Y -0.133 | M -0.142 | F -0.185 | A -0.221 | S -0.464
